One experiment concerns the target T1, ERBB3 on BT-474 cells (Homo sapiens, UniProt P21860).
T1 construct: ERBB3/HER3 receptor on the surface of BT-474 breast cancer cells; Also used for the functional rows, where the cells were BT-474, NCI-N87 and ACHN; also called HER3; source: endogenous, BT-474 cells
The experiment in a line: flow cytometry on cells; 0, 0.5, 2, 5 ug IgG with BT-474 cells (250,000 cells/assay); detected with FITC-conjugated anti-human Fc. To be noted: one partner purified. A general note: Flow cytometry measures light scatter and fluorescence of single cells or particles in a stream.

Experiment [1] deals with T2, intact ERBB3 extracellular domain (dI-IV, aa20-639) (Homo sapiens, UniProt P21860).
T2 construct: ERBB3/HER3 extracellular domain, domains I-IV, aa20-639; also called ERBB3 ECD; intact ERBB3 ECD; source: purified from culture supernatant by IMAC (HisTrap)
T2 sequence (P21860 20-639): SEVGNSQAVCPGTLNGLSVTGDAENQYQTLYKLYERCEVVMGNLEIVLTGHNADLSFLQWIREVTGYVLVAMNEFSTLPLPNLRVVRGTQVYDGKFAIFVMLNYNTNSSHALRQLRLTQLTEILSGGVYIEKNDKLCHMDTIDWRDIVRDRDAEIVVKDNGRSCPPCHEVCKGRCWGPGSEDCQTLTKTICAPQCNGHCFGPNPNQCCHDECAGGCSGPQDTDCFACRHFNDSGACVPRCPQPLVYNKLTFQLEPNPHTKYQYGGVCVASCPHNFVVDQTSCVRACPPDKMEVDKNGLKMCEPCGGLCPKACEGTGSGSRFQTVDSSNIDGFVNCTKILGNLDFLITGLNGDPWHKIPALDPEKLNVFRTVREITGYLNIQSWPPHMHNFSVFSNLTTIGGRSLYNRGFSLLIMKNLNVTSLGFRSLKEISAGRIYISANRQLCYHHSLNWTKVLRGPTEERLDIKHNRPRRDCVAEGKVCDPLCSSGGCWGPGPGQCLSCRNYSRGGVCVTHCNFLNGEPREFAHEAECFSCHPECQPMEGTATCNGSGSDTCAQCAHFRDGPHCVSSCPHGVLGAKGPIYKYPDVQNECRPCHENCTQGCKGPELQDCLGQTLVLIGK
The experiment can be described thus: ELISA; apparent; ERBB3 extracellular domain immobilised; 4-fold serial dilutions of IgG (1333-0.02 nM); detected with HRP-conjugated anti-human Fc.

The target in experiment [2] is T3, ERBB3 extracellular domain I (dI, aa20-207) (Homo sapiens, UniProt P21860).
T3 construct: ERBB3/HER3 domain I, aa20-207; Sub-cloned into pSEC-Tag2/HygroA (vector-supplied secretion signal; the vector may add further tag residues); source: HEK293, stably expressed, purified from culture supernatant (IMAC, HisTrap)
T3 sequence (P21860 20-207): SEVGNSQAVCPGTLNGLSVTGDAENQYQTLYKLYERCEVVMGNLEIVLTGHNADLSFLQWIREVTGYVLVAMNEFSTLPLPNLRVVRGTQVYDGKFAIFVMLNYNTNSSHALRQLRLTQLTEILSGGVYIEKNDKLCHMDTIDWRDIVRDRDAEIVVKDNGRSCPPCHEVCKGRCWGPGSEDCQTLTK
The experiment can be described thus: native gel or EMSA; IgG (30-40 ug) with dI at 1.5x and 3x molar ratios of IgG:dI, 4 uL reaction, 30 min at room temperature; 12.5% native acrylamide gel (PhastGel), stained; loss of free dI read. The settings on record: both partners purified. On the technique in general: In EMSA bound probe runs differently from free probe, usually more slowly.

The target of experiment [3] is T2, intact ERBB3 extracellular domain …. The experiment can be described thus: pull-down; called immunoprecipitation: scFv coupled to AminoLink agarose (about 80 ug scFv, 20-50 fold excess) incubated 1 h at room temperature with 5 ug ERBB3 ECD fragment in 40 uL; washed 3x with PBS; supernatant and pellet fractions on SDS-PAGE. The settings on record: both partners purified.

The target of experiment [4] is T4, ERBB3 extracellular domain III (dIII, aa311-477) (Homo sapiens, UniProt P21860).
T4 construct: ERBB3/HER3 domain III, aa311-477; Subcloned into pMTBiPV5HISa (vector-supplied secretion signal; the vector may add further tag residues); source: S2 cells, stably expressed, purified from culture supernatant (IMAC, HisTrap)
T4 sequence (P21860 311-477): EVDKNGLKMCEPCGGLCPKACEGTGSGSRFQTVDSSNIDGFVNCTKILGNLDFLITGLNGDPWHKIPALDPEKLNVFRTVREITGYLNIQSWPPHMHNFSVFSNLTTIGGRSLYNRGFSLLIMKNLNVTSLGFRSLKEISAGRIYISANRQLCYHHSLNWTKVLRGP
The experiment is described as above. To be noted: both partners purified.

Experiment [5] has as its target T5, ERBB3 extracellular domains III-IV (dIII-IV, aa310-616) (Homo sapiens, UniProt P21860).
T5 construct: ERBB3/HER3 domains III-IV, aa310-616; source: purified from culture supernatant by IMAC (HisTrap)
Described as above. To be noted: both partners purified.

Experiment [6] deals with T3, ERBB3 extracellular domain I (dI, …). The experiment is described as above. The settings on record: both partners purified.
Experiment [7] has as its target T6, ERBB3 extracellular domains I-II (dI-II, aa20-329) (Homo sapiens, UniProt P21860).
T6 construct: ERBB3/HER3 domains I-II, aa20-329; Sub-cloned into pSEC-Tag2/HygroA (vector-supplied secretion signal; the vector may add further tag residues); source: HEK293, stably expressed, purified from culture supernatant (IMAC, HisTrap)
The description is as above. To be noted: both partners purified.

T1 sequence (P21860 20-1342): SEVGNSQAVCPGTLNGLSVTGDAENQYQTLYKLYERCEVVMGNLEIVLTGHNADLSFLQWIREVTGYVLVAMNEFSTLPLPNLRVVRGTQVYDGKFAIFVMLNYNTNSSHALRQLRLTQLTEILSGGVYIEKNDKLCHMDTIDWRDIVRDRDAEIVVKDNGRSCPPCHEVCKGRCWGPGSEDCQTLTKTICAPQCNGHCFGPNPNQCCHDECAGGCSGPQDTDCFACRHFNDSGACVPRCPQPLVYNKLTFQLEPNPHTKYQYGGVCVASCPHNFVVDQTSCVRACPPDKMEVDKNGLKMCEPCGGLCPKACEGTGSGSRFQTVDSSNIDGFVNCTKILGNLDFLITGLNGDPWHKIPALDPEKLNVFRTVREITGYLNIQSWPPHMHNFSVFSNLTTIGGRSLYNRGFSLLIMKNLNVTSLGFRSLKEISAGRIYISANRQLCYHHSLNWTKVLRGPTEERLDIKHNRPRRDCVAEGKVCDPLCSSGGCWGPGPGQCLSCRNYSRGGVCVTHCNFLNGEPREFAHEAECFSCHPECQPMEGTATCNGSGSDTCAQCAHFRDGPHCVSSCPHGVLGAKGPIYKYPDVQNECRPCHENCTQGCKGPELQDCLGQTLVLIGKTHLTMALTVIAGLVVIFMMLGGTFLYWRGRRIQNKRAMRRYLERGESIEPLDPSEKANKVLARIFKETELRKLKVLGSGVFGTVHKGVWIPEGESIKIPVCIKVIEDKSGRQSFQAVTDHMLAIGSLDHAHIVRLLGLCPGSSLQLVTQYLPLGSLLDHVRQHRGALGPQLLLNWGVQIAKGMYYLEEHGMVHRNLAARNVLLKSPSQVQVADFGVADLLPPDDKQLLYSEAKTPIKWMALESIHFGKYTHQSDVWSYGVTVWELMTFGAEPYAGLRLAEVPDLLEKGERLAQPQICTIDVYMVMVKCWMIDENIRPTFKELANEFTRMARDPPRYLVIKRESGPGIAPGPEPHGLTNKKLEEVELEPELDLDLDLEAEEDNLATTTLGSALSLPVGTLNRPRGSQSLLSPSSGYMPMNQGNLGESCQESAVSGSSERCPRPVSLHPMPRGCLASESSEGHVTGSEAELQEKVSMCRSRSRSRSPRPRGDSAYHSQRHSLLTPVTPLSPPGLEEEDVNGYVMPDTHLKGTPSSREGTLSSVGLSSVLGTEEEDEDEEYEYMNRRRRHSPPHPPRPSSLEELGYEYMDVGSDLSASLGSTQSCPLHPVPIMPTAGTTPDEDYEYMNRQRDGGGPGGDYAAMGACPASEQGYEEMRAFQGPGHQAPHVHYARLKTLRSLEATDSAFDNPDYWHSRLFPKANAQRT
T6 sequence (P21860 20-329): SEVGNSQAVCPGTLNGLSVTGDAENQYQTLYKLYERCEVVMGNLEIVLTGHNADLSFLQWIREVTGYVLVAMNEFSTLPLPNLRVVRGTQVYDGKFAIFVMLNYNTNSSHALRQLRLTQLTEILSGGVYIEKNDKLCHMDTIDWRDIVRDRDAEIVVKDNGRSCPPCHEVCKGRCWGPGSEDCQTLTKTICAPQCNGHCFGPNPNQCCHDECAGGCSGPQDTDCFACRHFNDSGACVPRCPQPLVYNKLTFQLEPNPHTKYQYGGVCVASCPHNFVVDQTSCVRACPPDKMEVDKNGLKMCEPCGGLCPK
T5 sequence (P21860 310-616): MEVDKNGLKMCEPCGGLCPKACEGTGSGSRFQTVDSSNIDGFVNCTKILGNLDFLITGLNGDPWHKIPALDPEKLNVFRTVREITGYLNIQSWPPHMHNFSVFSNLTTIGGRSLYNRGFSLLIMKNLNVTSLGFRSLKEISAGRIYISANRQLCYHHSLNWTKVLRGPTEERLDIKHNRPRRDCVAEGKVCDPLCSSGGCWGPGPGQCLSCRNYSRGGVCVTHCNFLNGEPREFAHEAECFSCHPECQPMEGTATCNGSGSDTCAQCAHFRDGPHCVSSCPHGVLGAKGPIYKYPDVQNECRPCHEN

B1: A5 anti-ERBB3 IgG (human IgG1 format) (antibody, V domains shown)
VH: QVQLVQSGGGLVKPGGSLRLSCAASGFSFNTYDMNWVRQAPGKGLEWVSSISSSSSYIYYADSVKGRFTISRDNAKNSLYLQMNSLRAEDTAVYYCARDGVATTPFDYWGQGTLVTVSS
VL: QSVLTQPPSVSGAPGQRVTISCTGSSSNIGAGYDVHWYQQLPGTAPKLLIYGNSNRPSGVPDRFSGSKSGTSASLAITGLQAEDEADYYCQSYDSSLSALFGGGTKLTVL
notes: A5 variable heavy (Vh) domain; human IgG1 heavy chain constant region; A5 variable light (Vl) domain; light chain constant domain; IgG1; also called A5 IgG; source: purified from conditioned media by protein A chromatography; copies: 2 + 2
As for B1, the binding result was “binds” with ERBB3 on BT-474 cells; “no binding (tested: 1.5x and 3x Molar excess of antibody)” in experiment [2]. Further, in experiment [1], the Kd is 11.1 nM.

B2: A5 anti-ERBB3 single-chain Fv (scFv, V domains shown)
VH: QVQLVQSGGGLVKPGGSLRLSCAASGFSFNTYDMNWVRQAPGKGLEWVSSISSSSSYIYYADSVKGRFTISRDNAKNSLYLQMNSLRAEDTAVYYCARDGVATTPFDYWGQGTLVTVSS
VL: QSVLTQPPSVSGAPGQRVTISCTGSSSNIGAGYDVHWYQQLPGTAPKLLIYGNSNRPSGVPDRFSGSKSGTSASLAITGLQAEDEADYYCQSYDSSLSALFGGGTKLTVL
notes: A5 variable heavy (Vh) domain; linker of the scFv; A5 variable light (Vl) domain; Coupled to AminoLink agarose in the immunoprecipitations; also called A5 scFv
With B2, the binding result in experiment [3], in experiment [4] and in experiment [5] was “binds” throughout.

B3: F4 anti-ERBB3 IgG (human IgG1 format) (antibody, V domains shown)
VH: QVQLQESGGGLVKPGGSLRLSCAASGFTFSSYAMSWVRQAPGKGLEWVSTISGSGGSTYYADSVKGRFTISRDNSKNTLYLQMNSLRAEDTAVYYCAKGYSSSWSEVASGYWGQGTLVTVSS
VL: DIVMTQSPSSLSASVGDRVTITCRASQGIRNDLGWYQQKAGKAPKLLIYAASSLQSGVPSRFSGSGSGTDFTLTISSLQPDDFATYFCQQAHSFPPTFGGGTKVEIK
notes: F4 variable heavy (Vh) domain; human IgG1 heavy chain constant region; F4 variable light (Vl) domain; light chain constant domain; IgG1; also called F4 IgG; source: purified from conditioned media by protein A chromatography; copies: 2 + 2
For the molecule B3, the binding result (with ERBB3 on BT-474 cells; in experiment [2]) was “binds” throughout. The Kd in experiment [1] was 4.8 nM.

B4: F4 anti-ERBB3 single-chain Fv (scFv, V domains shown)
VH: QVQLQESGGGLVKPGGSLRLSCAASGFTFSSYAMSWVRQAPGKGLEWVSTISGSGGSTYYADSVKGRFTISRDNSKNTLYLQMNSLRAEDTAVYYCAKGYSSSWSEVASGYWGQGTLVTVSS
VL: DIVMTQSPSSLSASVGDRVTITCRASQGIRNDLGWYQQKAGKAPKLLIYAASSLQSGVPSRFSGSGSGTDFTLTISSLQPDDFATYFCQQAHSFPPTFGGGTKVEIK
notes: F4 variable heavy (Vh) domain; linker of the scFv; F4 variable light (Vl) domain; Coupled to AminoLink agarose in the immunoprecipitations; also called F4 scFv
Turning to B4, the binding result in experiment [3], in experiment [6] and in experiment [7] was “binds” in each case.
